T1: human LRRC15 (leucine-rich repeat containing protein 15) (human, UniProt Q8TF66 22-581)
T1 construct: whole, on cells; also called huLRRC15
T1 sequence (looked up): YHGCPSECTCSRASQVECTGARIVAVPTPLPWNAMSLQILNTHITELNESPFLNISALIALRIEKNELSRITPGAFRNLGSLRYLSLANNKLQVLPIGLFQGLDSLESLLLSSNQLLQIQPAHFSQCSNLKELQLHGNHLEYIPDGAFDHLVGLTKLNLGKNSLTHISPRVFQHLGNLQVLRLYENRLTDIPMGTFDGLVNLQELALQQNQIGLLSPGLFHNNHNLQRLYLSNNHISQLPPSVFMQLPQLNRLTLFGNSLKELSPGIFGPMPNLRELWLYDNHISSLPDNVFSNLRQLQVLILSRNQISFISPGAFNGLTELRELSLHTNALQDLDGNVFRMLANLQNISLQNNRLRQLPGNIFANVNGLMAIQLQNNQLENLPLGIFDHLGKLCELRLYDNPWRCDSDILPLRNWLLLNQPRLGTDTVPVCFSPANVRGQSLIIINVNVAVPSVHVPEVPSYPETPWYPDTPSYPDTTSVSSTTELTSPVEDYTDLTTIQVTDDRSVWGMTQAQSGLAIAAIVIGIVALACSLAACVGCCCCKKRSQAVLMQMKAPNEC

B1: 153-L06C (bispecific antibody)
chain 1: not shown
chain 2: EPKSCDKTHTCPPCPAPEFEGGPSVFLFPPKPKDTLMISRTPEVTCVVVDVSHEDPEVKFNWYVDGVEVHNAKTKPREEQYNSTYRVVSVLTVLHQDWLNGKEYKCKVSNKALPASIEKTISKAKGQPREPQVCTLPPSRDELTKNQVSLTCLVEGFYPSDIAVEWESNGQPENNYKTTPPVLDSDGSFFLYSDLTVDKSRWQQGNVFSCSVMHEALHNHYTQESLSLSPGK
notes: Targets LRRC15 and CD3; heterodimeric IgG1 Fc; also called bispecific antibody of structure b (scFv-scFv-Fc x Fc)
B2: L15-06 (antibody, V domains shown)
VH: EVQLLESGGGLVQPGGSLRLSCAASGFTFSSYYMSWVRQAPGKGLEWVADISVSGSYTNYADSVKGRFTISRDNSKNTLYLQMNSLRAEDTAVYYCARIGSYRSFFSTDDGDSLDYWGQGTLVTVSS
VL: not shown
notes: From phage library screening; tested as a 'monoclonal antibody molecule'; also called L15-L06
B3: L15-03 (antibody, V domains shown)
VH: QVQLVQSGAEVKKPGSSVKVSCKASGGTFSSYTISWVRQAPGQGLEWMGGIIPMFGTANYAQKFQGRVTITADESTSTAYMELSSLRSEDTAVYYCARGVALLATDFDYWGQGTLVTVSS
VL: QSALTQPASVSGSPGQSITISCTGTSSDVGGYNYVSWYQQHPGKAPKLMIYEVSNRPSGVSNRFSGSKSGNTASLTISGLQAEDEADYYCQSWTHDNSVVFGGGTKLTVL
notes: From phage library screening; also called anti-LRRC15 antibody L15-03
B4: L15-07 (antibody, V domains shown)
VH: QVQLVQSGAEVKKPGSSVKVSCKASGGTFSTYAISWVRQAPGQGLEWMGGITPMFGTPNYAQKFQGRVTITADESTSTAYMELSSLRSEDTAVYYCARGDWYDYHFDYWGQGTLVTVSS
VL: QSALTQPASVSGSPGQSITISCTGTSSDVGGYNYVSWYQQHPGKAPKLMIYEVSNRPSGVSNRFSGSKSGNTASLTISGLQAEDEADYYCQSYANRDNFVVFGGGTKLTVL
notes: From phage library screening
B5: L15-08 (antibody, V domains shown)
VH: QVQLVESGGGLVKPGGSLRLSCAASGFTFSDYYMSWIRQAPGKGLEWVSDISVSSSYTNYADSVKGRFTISRDNAKNSLYLQMNSLRAEDTAVYYCARLGGYRSFFSTDDGDSLDYWGQGTLVTVSS
VL: not shown
notes: From phage library screening
B6: 315-L06C08 (bispecific antibody)
chain: not shown
heavy: QVQLVESGGGLVKPGGSLRLSCAASGFTFSDYYMSWIRQAPGKGLEWVSDISVSSSYTNYADSVKGRFTISRDNAKNSLYLQMNSLRAEDTAVYYCARLGGYRSFFSTDDGDSLDYWGQGTLVTVSSASTKGPSVFPLAPSSKSTSGGTAALGCLVKDYFPEPVTVSWNSGALTSGVHTFPAVLQSSGLYSLSSVVTVPSSSLGTQTYICNVNHKPSNTKVDKRVEPKSCDKTHTCPPCPAPEFEGGPSVFLFPPKPKDTLMISRTPEVTCVVVDVSHEDPEVKFNWYVDGVEVHNAKTKPREEQYNSTYRVVSVLTVLHQDWLNGKEYKCKVSNKALPASIEKTISKAKGQPREPQVCTLPPSRDELTKNQVSLTCLVEGFYPSDIAVEWESNGQPENNYKTTPPVLDSDGSFFLYSDLTVDKSRWQQGNVFSCSVMHEALHNHYTQESLSLSPGK
light: not shown
notes: heterodimeric IgG1 Fc; also called bispecific antibody of structure c (scFv-scFv-Fc x Fab-Fc)

Molecular target: T1, human LRRC15 (leucine-rich repeat …)
Assay: FACS on CHO cells expressing human LRRC15
Protocol: Furthermore, the binding ability of the LRRC15 antibodies of the present invention to CHO cells expressing LRRC15 was tested. Therein, CHO cells expressing LRRC15 were prepared by the following method: the full-length sequence gene fragments of human, mouse and monkey LRRC15 were obtained by whole gene synthesis, and then these fragments were inserted into the backbone of the stable expression vector to obtain the expression plasmid vectors. These three plasmids were transfected into CHO cells, and monoclonal cell lines were screened under the pressure of puromycin, which are the flow cytometry cell lines used in this example.
CHO cells expressing LRRC15 were washed with FACS buffer (0.5% BSA in PBS) and resuspended at 2E6 cells/ml with the gradient diluted LRRC15 antibodies. The resuspension was incubated on ice for 30 minutes, then washed twice with FACS buffer and incubated with the second antibody on ice for 30 minutes. After washing the resuspended cells with FACS buffer again, the cells were detected by flow cytometry. Based on the measured mean fluorescence intensity, the half maximal binding concentration (EC50) of each antibody was determined.

Row | Binder | binding result
1 | B1 | binds
2 | B2 | binds
3 | B3 | binds
4 | B4 | binds
5 | B5 | binds
6 | B6 | binds
